From patent publication US20240343806A1 (EUCURE BEIJING BIOPHARMA, published 2024)

What was measured:
[1] = target: T1, mouse CTLA4 (mouse, UniProt P09793 36-223); assay: flow cytometry on CHO-mCTLA4 cells; SSC vs Anti-Human-IgGFc-FITC
T1 construct: Expressed on transfected CHO cells; also called mCTLA4
Protocol: 25 ul CHO cells were added to each well.
After being washed with PBS (1200 rmp, 5 min) twice, 50 ul of anti-human IgG Fc antibody fluorescein isothiocyanate conjugate (IgG Fc-FITC) was added at 1:100 dilution into each well and was incubated at 4° C. for 30 minutes, followed by PBS wash. The signals for FITC were determined by flow cytometry.

[2] = target: T1, mouse CTLA4; assay: flow cytometry on CHO-mCTLA4 cells; SSC vs Anti-mouse-IgGFc-FITC

T1 sequence (P09793 36-223 S182T limits assumed): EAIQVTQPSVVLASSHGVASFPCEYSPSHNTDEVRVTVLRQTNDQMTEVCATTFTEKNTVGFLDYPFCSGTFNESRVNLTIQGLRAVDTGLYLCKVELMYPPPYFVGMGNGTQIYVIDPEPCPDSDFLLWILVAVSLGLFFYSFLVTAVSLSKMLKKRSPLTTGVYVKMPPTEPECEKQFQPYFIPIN

Binder | binding result [1] | binding result [2]
CT4-03-4G12-mHvKv-IgG1 (antibody, V domains shown) VH: DVKLVESGGGLVKPGGSLKLSCTASGFTFSSYTMSWVRQTPEKRLEWVATISRGGGYTSYPDSVKGRFTISRDNAKNTLYLQMSSLQSEDTAMYYCARDDYGSSYVHWFAYWGQGTLVTVSA VL: DIQMTQSPASLSASVGETVTITCRAGENIYSYLAWYQQKQGKSPQLLVYNARTLAEGVPSRFSGSGSGTQFSLKINSLQPEDFGSYYCQHHYGSPRTFGGGTKLEIK | no binding (tested: 1 ug/ml) | 
CT4-04-13A4-mHvKv-IgG1 (antibody, V domains shown) VH: QVQLQQSGAELVRPGASVTLSCKASGYTFTDYEMHWVKQTPVHGLEWIGVIDPETGGTAYNQKFKGKATLTADRSSSTAYMELRSLTSEDSAVYYCTRGTTVVGLDYWGQGTTLTVSS VL: DIQMTQSPASLSASVGESVTITCRASGNIHNYLAWYQQKQGKSPQLLVYKEKTLTDTVPSRFSGSGSGTQFSLKINSLQPEDFGSYYCQHFWSTPWTFGGGTNLEIK | no binding (tested: 1 ug/ml) | 
CT4-20-6D2 (antibody, V domains shown, Mouse monoclonal antibody purified from ascites fluid) VH: QVQLQQSGAELVRPGASVTLSCKASGYTFTDYEMHWVKQTPVHGLEWIGTIDPETGGTAYNQKFKGKATLTTDKSSSTAYMELRSLTSEDSAVYYCTRRGKYGNYDYVMDYWGQGTSVTVSS VL: DIQMTQSPASLSASVGETVTITCRASGNIHNYLAWYQQKQGKSPQLLVFNAKTLADGVPSRFSGSGSGTQYSLKINSLQPEDFGNYYCQHFWSTPWTFGGGTKLEIK |  | no binding (tested: 1 ug/ml)
CT4-20-7E12 (antibody, V domains shown, Mouse monoclonal antibody purified from ascites fluid) VH: EVKLDETGGGLVQPGRPMKLSCVASGFTFSDYWMNWVRQSPEKGLEWVAQIRNKPYNYETHYSDSVKGRFTISRDDSKSSVYLQMNNLRGEDMGIYYCTGTFAYWGQGTLVTVSA VL: DIQMTQSPTSLSASVGETVTITCGTSENIYGGLNWYQRKQGKSPQLLIYGATNLADGMSSRFSGSGSGRQYSLKISSLHPDDVATYYCQNVLSTPYTFGGGTKLEIK |  | no binding (tested: 1 ug/ml)
